Measurements as given in paper PMC9811728.

Assays:
[1] = biological target: SC-CAT (SpyCatcher fused to the N-terminus of catalase) (Bacillus subtilis strain 168); assay: SEC; elution profiles compared with molecular weight standards
[2] = biological target: SC-LOX (SpyCatcher fused to the N-terminus of lactate oxidase) (Aerococcus viridans); assay: as above

For “SC-CAT (SpyCatcher fused to the N-terminus of catalase) (enzyme)”, the stoichiometry N [1] was 4.
“SC-LOX (SpyCatcher fused to the N-terminus of lactate oxidase) (enzyme)” was tested, and the stoichiometry N [2] was 4.
